The text below walks through data of patent publication US20070071742A1 (PERLAN THERAPEUTICS, published 2007).

The labels stand for the following.
B1: HumA humanized 1A6 scFv (scFv, not shown: large carriers)
scFv: DIQMTQSPSSLSASVGDRVTITCRASQSISNNLHWYQQKPGKAPKLLIYHASQSISGVPSRFSGSGSGTDFTLTISSLQPEDFATYYCQQSNSWPYTFGQGTKVEIKRGGGGSGGGGSGGGGSGGGGSEVQLVESGGGLVQPGGSLRLSCAASGFNIKDTYIHWVRQAPGKGLEWVARIDPANDNTIYADSVKGRFTISSDDSKNTAYLQMNSLRAEDTAVYYCTDSGYWFAYWGQGTLVTVSS
B2: HumC humanized 1A6 scFv (scFv, not shown: large carriers)
scFv: DIQMTQSPSSLSASVGDRVTITCRASQSISNNLHWYQQKPGKAPKLLIYHASQSISGVPSRFSGSGSGTDFTLTISSLQPEDFATYYCQQSNSWPYTFGQGTKVEIKRGGGGSGGGGSGGGGSGGGGSEVQLVESGGGLVQPGGSLRLSCAASGFNIKDTYIHWVRQAPGKGLEWVARIDPANDNTIYADSVKGRFTISGDDSKNTAYLQMNSLRAEDTAVYYCTTSGYWFAYWGQGTLVTVSS
B3: HumB humanized 1A6 scFv (scFv, not shown: large carriers)
scFv: DIQMTQSPSSLSASVGDRVTITCRASQSISNNLHWYQQKPGKAPKLLIYHASQSISGVPSRFSGSGSGTDFTLTISSLQPEDFATYYCQQSNSWPYTFGQGTKVEIKRGGGGSGGGGSGGGGSGGGGSEVQLVESGGGLVQPGGSLRLSCAASGFNIKDTYIHWVRQAPGKGLEWVARIDPANDNTIYADSVKGRFTISSDDSKNTAYLQMNSLRAEDTAVYYCTASGYWFAYWGQGTLVTVSS

ICAM-1 on HeLa cells, sequence (P05362 28-532 limits assumed): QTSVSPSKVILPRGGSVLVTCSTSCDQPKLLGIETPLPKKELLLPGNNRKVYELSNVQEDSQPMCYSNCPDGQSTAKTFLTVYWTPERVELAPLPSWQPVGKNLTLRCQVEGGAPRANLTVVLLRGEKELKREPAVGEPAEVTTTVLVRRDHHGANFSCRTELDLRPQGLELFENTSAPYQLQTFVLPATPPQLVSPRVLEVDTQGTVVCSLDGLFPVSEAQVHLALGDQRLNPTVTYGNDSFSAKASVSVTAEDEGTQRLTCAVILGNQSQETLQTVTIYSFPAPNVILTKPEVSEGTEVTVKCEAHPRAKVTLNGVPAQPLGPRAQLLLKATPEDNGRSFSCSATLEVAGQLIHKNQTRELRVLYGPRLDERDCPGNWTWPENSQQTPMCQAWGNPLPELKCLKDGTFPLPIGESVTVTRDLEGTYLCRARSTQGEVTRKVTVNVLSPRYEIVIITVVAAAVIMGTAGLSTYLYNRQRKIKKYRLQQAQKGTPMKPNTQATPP

The assay addresses ICAM-1 on HeLa cells (UniProt P05362 28-532, limits assumed). As to the kind of experiment: cell-based or functional assay.
As for B1, the “EC 50 (µM): 50% protection of HeLa cells against HRV15 infection at 1 MOI” value (from here on “EC 50 (µM): 50% protection of HeLa cells”) is 2.8 µM.

In the case of B2, the “EC 50 (µM): 50% protection of HeLa cells” value came out at 0.22 µM.

Turning to B3, the “EC 50 (µM): 50% protection of HeLa cells” value is 0.19 µM.
